# Experimental data from PMC11480844 (2024).
# B1: H2-Kb / Ed45 (parent complex)
# chain 1: GEQVEQRPPHLSVREGDSAVIICTYTDPNSYYFFWYKQEPGAGLQLLMKVFSSTEINEGQGFTVLLNKKDKQLSLNLTAAHPGDSAVYFCAVSGTNAYKVIFGKGTHLHVLP
# chain 2: EAAVTQSPRSKVAVTGGKVTLSCHQTNNHDYMYWYRQDTGHGLRLIHYSYVADSTEKGDIPDGYKASRPSQENFSLILELASLSQTAVYFCASARGFQDTQYFGPGTRLLVL
# chain 3: not shown
# chain 4: IQKTPQIQVYSRHPPENGKPNILNCYVTQFHPPHIEIQMLKNGKKIPKVEMSDMSFSKDWSFYILAHTEFTPTETDTYACRVKHDSMAEPKTVYWDRDM
# chain 5: SIINFEKL
# B2: H2-Kb / Ed5 (parent complex)
# chain 1: GDSVTQTEGPVTVSESESLIINCTYSATSIAYPNLFWYVRYPGEGLQLLLKVITAGQKGSSRGFEATYNKETTSFHLQKASVQESDSAVYYCALGSYNQGKLIFGQGTKLSIKP
# chain 2: DTTVKQNPRYKLARVGKPVNLICSQTMNHDTMYWYQKKPNQAPKLLLFYYDKILNREADTFEKFQSSRPNNSFCSLYIGSAGLEYSAMYLCASSRRLGASQNTLYFGAGTRLSVL
# chain 3: not shown
# chain 4: B1 chain 4
# chain 5: SIINFEKL
# Variants of: B1
# Experiment: % of reporter cells activated (NFAT-GFP), raw
# Note: test concentration or dose not given here.
row,Variant,ratio to parent
1,chain 5 L8V,1.43
2,chain 5 L8Q,1.79
3,chain 5 L8C,1.72
4,chain 5 L8R,1.77
5,chain 5 L8T,1.72
6,chain 5 L8N,1.6
7,chain 5 L8H,1.66
8,chain 5 L8F,1.79
9,chain 5 N4P,0.0883
10,chain 5 N4G,1.18
11,chain 5 N4E,1.11
12,chain 5 N4D,0.241
13,chain 5 N4I,1.11
14,chain 5 N4Q,0.0624
15,chain 5 N4Y,0.0695
16,chain 5 N4V,0.0865
17,chain 5 N4C,0.183
18,chain 5 N4S,0.0823
19,chain 5 N4F,0.261
20,chain 5 N4L,1.34
21,chain 5 F5T,0.936

row,Variant,ratio to parent
1,chain 5 F5H,1.28
2,chain 5 F5G,0.495
3,chain 5 F5L,0.719
4,chain 5 F5K,1.19
5,chain 5 F5Y,1.63
6,chain 5 F5Q,0.947
7,chain 5 F5P,1
8,chain 5 F5D,1.54
9,chain 5 F5W,2.33
10,chain 5 F5M,0.797
11,chain 5 I3Q,2.26
12,chain 5 I3L,1.61
13,chain 5 I3W,1.57
14,chain 5 I3F,0.726
15,chain 5 I3C,1.81
16,chain 5 I3D,2.15
17,chain 5 I3G,1.87
18,chain 5 I3Y,0.537
19,chain 5 I3P,2.34
20,chain 5 I3T,1.86
21,chain 5 I3E,2.17

row,Variant,ratio to parent
1,chain 5 E6T,0.91
2,chain 5 E6I,0.155
3,chain 5 E6W,0.317
4,chain 5 E6N,1.11
5,chain 5 E6R,0.0752
6,chain 5 E6G,0.715
7,chain 5 E6Q,0.738
8,chain 5 E6D,0.542
9,chain 5 E6F,0.188
10,chain 5 I2N,1.33
11,chain 5 I2E,1.97
12,chain 5 I2S,1.32
13,chain 5 I2G,1.62
14,chain 5 I2W,1.68
15,chain 5 I2Q,1.91
16,chain 5 I2Y,1.75
17,chain 5 S1F,0.0609
18,chain 5 S1W,0.347
19,chain 5 S1K,0.191
20,chain 5 S1E,0.177
21,chain 5 S1P,0.0861

row,Variant,ratio to parent
1,chain 5 S1C,0.234
2,chain 5 S1H,0.638
3,chain 5 S1Y,0.775
4,chain 5 S1M,0.0805
5,chain 5 S1L,0.0583
6,chain 5 S1D,0.424
7,chain 5 S1V,0.0654
8,chain 5 K7V,0.895
9,chain 5 K7T,0.253
10,chain 5 K7D,0.247
11,chain 5 K7H,1.25
12,chain 5 K7M,1.21
13,chain 5 K7I,0.349
14,chain 5 K7G,0.872
15,chain 5 K7R,2.06
16,chain 5 K7S,1.34
17,chain 5 K7Y,1.03
18,chain 5 K7P,0.891

# Variants of: B2
# Experiment: % of reporter cells activated (NFAT-GFP), raw
row,Variant,ratio to parent
1,chain 5 I3G,0.28
2,chain 5 I3A,0.32
3,chain 5 I3H,0.121
4,chain 5 E6A,0.606
5,chain 5 E6C,0.491
6,chain 5 E6I,0.533
7,chain 5 E6P,0.186
8,chain 5 E6K,0.901
9,chain 5 E6S,0.585
10,chain 5 E6V,0.618
11,chain 5 E6Q,0.619
12,chain 5 K7M,0.725
13,chain 5 K7H,0.798
14,chain 5 K7D,0.593
15,chain 5 K7A,0.645
16,chain 5 K7E,0.632
17,chain 5 K7Y,0.717
18,chain 5 K7F,0.657
19,chain 5 K7N,0.714
20,chain 5 L8S,0.641
21,chain 5 L8G,0.901
22,chain 5 L8H,0.958
23,chain 5 L8M,0.752

row,Variant,ratio to parent
1,chain 5 L8W,0.585
2,chain 5 L8R,0.904
3,chain 5 L8K,0.793
4,chain 5 L8E,0.629
5,chain 5 L8Q,0.783
6,chain 5 F5H,0.822
7,chain 5 F5Y,0.892
8,chain 5 F5W,0.695
9,chain 5 F5I,0.886
10,chain 5 F5K,0.905
11,chain 5 F5E,0.848
12,chain 5 F5M,0.938
13,chain 5 F5R,0.764
14,chain 5 F5S,0.735
15,chain 5 F5V,0.777
16,chain 5 F5A,1.01
17,chain 5 N4E,0.00233
18,chain 5 N4P,0.00308
19,chain 5 N4L,0.182
20,chain 5 N4D,0.756
21,chain 5 N4T,0.04
22,chain 5 N4G,0.00398
23,chain 5 N4C,0.164

row,Variant,ratio to parent
1,chain 5 N4K,0.0781
2,chain 5 N4R,0.374
3,chain 5 N4A,0.002
4,chain 5 N4Y,0.0536
5,chain 5 N4I,0.274
6,chain 5 N4S,0.0018
7,chain 5 S1W,0.374
8,chain 5 S1T,0.944
9,chain 5 S1E,0.981
10,chain 5 S1D,0.629
11,chain 5 S1M,0.02
12,chain 5 S1L,0.0134
13,chain 5 S1C,0.161
14,chain 5 S1Q,0.556
15,chain 5 S1P,0.0946
16,chain 5 S1R,0.293
17,chain 5 I2R,0.641
18,chain 5 I2D,0.943
19,chain 5 I2V,1.01
20,chain 5 I2H,0.763
21,chain 5 I2F,0.851
22,chain 5 I2W,0.66
23,chain 5 I2T,1
